Assay results: patent US20250195679A1, “ANTIBODY-DRUG CONJUGATE AND USE THEREOF” (SHANGHAI HUAOTA BIOPHARMACEUTICAL CO., LTD., priority 2022, published 2025)

Columns and labels:
[1] = tested on: BxPC-3 human pancreatic cancer cells; test: BxPC3 CDX pancreatic cancer mouse efficacy model; assay type: in vivo, NPG mice; conditions: for inhibition of growth of BxPC-3 pancreatic cancer: 1 mg/kg i.p. BIW, 6 doses, FIG. 7; for inhibitory effect on tumor growth compared with 900698, Oleclumab and Uliledlimab: conjugate 1 mg/kg vs antibodies 5 mg/kg, i.p. BIW
Experimental: NPG mice were used to establish a BxPC-3 pancreatic cancer animal model for assaying the efficacy of the test antibodies. The BxPC-3 human pancreatic cancer cells used in this example were incubated in an RPMI-1640 medium supplemented with 10% FBS in an incubator at 37° C. with 5% CO2. Before continuous cell culturing for ten generations, 100 μL of PBS containing about 1×10^7 BxPC-3 cells was mixed uniformly with an equal volume of Matrigel. The mixture was then inoculated by subcutaneous injection into 18 NPG mice on the right side of the back near the axilla, with an inoculation volume of about 200 μL. The mice were anesthetized with 2%-5% isoflurane prior to the inoculation. On the day of inoculation, 1.0×10^7 PBMCs (100 μL) were injected via the tail vein. When the tumors grew to an average size of about 50-80 mm^3, the 18 tumor-bearing mice were randomly divided into 3 groups of 6 based on tumor volume and body weight.
Oleclumab is an anti-CD73 monoclonal antibody developed by AstraZeneca, currently in Phase 2 clinical trials. Uliledlimab is an anti-CD73 monoclonal antibody developed by I-Mab Biopharma, currently in Phase 1 clinical trials. The amino acid sequence of the heavy chain of 900543 is as set forth in SEQ ID NO. 45, and the amino acid sequence of the light chain of 900543 is as set forth in SEQ ID NO. 46. The amino acid sequence of the heavy chain of Oleclumab is as set forth in SEQ ID NO. 47, and the amino acid sequence of the light chain of Oleclumab is as set forth in SEQ ID NO. 48. The amino acid sequence of the heavy chain of Uliledlimab is as set forth in SEQ ID NO. 49, and the amino acid sequence of the light chain of Uliledlimab is as set forth in SEQ ID NO. 50.

[2] = tested on: MDA-MB-231 human breast cancer cells; test: MDA-MB-231 triple-negative breast cancer CDX mouse efficacy model (Example 8); assay type: in vivo, NPG mice; conditions: for inhibition of growth of MDA-MB-231 breast cancer: 2.5 and 5 mg/kg i.p. BIW, 8 doses, FIG. 8; for relation of anti-tumor effect to administration dose: 2.5 vs 5 mg/kg i.p. BIW; for inhibitory effect on tumor growth compared with 900698 and Oleclumab: antibodies at 5 mg/kg, i.p. BIW
Experimental: NPG mice were used to establish an MDA-MB-231 triple-negative breast cancer animal model for assaying the efficacy of the test antibodies. The MDA-MB-231 human breast cancer cells used in this example were incubated in an L-15 medium supplemented with 10% FBS in an incubator at 37° C. without CO2. Before continuous cell culturing for ten generations, about 5.0×10^6 MDA-MB-231 cells were suspended in 100 μL of PBS and then mixed uniformly with an equal volume of Matrigel. The mixture was then inoculated by subcutaneous injection into NPG humanized mice on the right side of the back near the axilla, with an inoculation volume of about 200 μL. The mice were anesthetized with 2%-5% isoflurane prior to the inoculation. On the day of inoculation, 1.0×10^7 PBMCs (100 μL) were injected via the tail vein. When the tumors grew to an average size of about 50-80 mm^3, the […] tumor-bearing mice were randomly divided into 7 groups of 6 based on tumor volume and body weight. […] Oleclumab is an anti-CD73 monoclonal antibody developed by AstraZeneca, currently in Phase 2 clinical trials. The amino acid sequence of the heavy chain of 900201 is as set forth in SEQ ID NO. 43, and the amino acid sequence of the light chain of 900201 is as set forth in SEQ ID NO. 44.

B1: Antibody-drug conjugate 1: 900698 antibody cysteine-conjugated to SN-38 via Mc-VC-PAB-DMEDA-PEG linker, DAR about 7.8 (conjugate)
VH: QVQLVESGGGLVKPGGSLRLSCAASGFTFSKYAMSWIRQAPGKGLEWVAEISSGGGYINYADSVKGRFTISRDNAKNSLYLQMNSLRAEDTAVYYCARAIYYYGSSYNYYAMDYWGQGTTVTVSS
VL: DIQMTQSPSSLSASVGDRVTITCRASQDVGTAEAWYQQKPGKAPKLLIYWASTRHTGVPSRFSGSGSGTDFTLTISSLQPEDFATYYCQQYSSYPLTFGQGTKLEIK
B1 was tested, and the “inhibition of growth of BxPC-3 pancreatic cancer” value [1] was “significantly inhibit the growth”, the “inhibitory effect on tumor growth compared with 900698, Oleclumab and Uliledlimab” value [1] was “superior” and the “inhibition of growth of MDA-MB-231 breast cancer” value [2] was “significantly inhibit the growth”. The “relation of anti-tumor effect to administration dose” value [2] was “positively correlated with the administration dose” and the “inhibitory effect on tumor growth compared with 900698 and Oleclumab” value [2] was “significantly superior”.

B2: Antibody-drug conjugate 2: 900698 antibody cysteine-conjugated to SN-38 via MP2-VC-PAB-DMEDA-PEG linker, DAR about 7.8 (conjugate)
VH: QVQLVESGGGLVKPGGSLRLSCAASGFTFSKYAMSWIRQAPGKGLEWVAEISSGGGYINYADSVKGRFTISRDNAKNSLYLQMNSLRAEDTAVYYCARAIYYYGSSYNYYAMDYWGQGTTVTVSS
VL: DIQMTQSPSSLSASVGDRVTITCRASQDVGTAEAWYQQKPGKAPKLLIYWASTRHTGVPSRFSGSGSGTDFTLTISSLQPEDFATYYCQQYSSYPLTFGQGTKLEIK
B2 was tested, and the “inhibition of growth of BxPC-3 pancreatic cancer” value [1] was “significantly inhibit the growth”, the “inhibitory effect on tumor growth compared with 900698, Oleclumab and Uliledlimab” value [1] was “superior” and the “inhibition of growth of MDA-MB-231 breast cancer” value [2] was “significantly inhibit the growth”. For the same molecule, the “relation of anti-tumor effect to administration dose” value [2] was “positively correlated with the administration dose” and the “inhibitory effect on tumor growth compared with 900698 and Oleclumab” value [2] was “significantly superior”.
